Results: patent US6645504B1, “Bystander suppression of type I diabetes by oral administration of glucagon” (AutoImmune Inc., priority 1987, dated 2003)

Legend:
EAE [1] = assay: EAE induced by guinea pig MBP 71-90, feeding of MBP peptides; type: in vivo, Lewis rats; details: fed; FIG. 14
Method: The effects of feeding various peptides to Lewis rats induced for EAE by guinea pig MBP residue nos. 71-90 (the major immunodominant epitope of guinea pig MBP as shown in Example 3 above) were also studied.
EAE was induced by immunizing with 0.25 mg of guinea pig MBP amino acid residue nos 71-90 in Complete Freund's Adjuvant and the effect of feeding various guinea pig MBP peptides on EAE was examined.

EAE [2] = assay: In vivo bystander suppression of EAE (MBP/CFA plus secondary antigen); design: species or system Lewis rats; details: MBP fed before MBP/CFA immunization; FIG. 6B
Method: Immunization Of Animals. Animals were immunized with 25 μg of MBP in the footpad, emulsified in an equal volume of CFA containing 4 mg/ml of Mycobacterium tuberculosis (Difco Labs, Detroit, Mich.) in order to induce a substantial EAE disease state. For in vivo bystander suppression experiments, 50-300 μg of the secondary antigens OVA, BSA or KLH were injected subcutaneously in the same footpad in 100 μl PBS 8 hours after primary immunization with MBP CFA.
Clinical Evaluation. Animals were evaluated in a blinded fashion every day for evidence of EAE in order to correlate the clinical manifestations of Bystander Suppression with the in vitro assays described below. Clinical severity of EAE was scored as follows: 0, no disease; 1, limp tail; 2, hind limb paralysis; 3, hind limb paraplegia, incontinence; 4, tetraplegia; 5, death. Mean maximal clinical severity was calculated as previously described for each experimental group (7). Statistical analysis was performed using a one-tailed student's t test and a chi square analysis for comparing incidence between groups.
Induction Of Oral Tolerance. Animals were fed 1 mg MBP, OVA, BSA or KLH dissolved in 1 ml PBS or PBS alone, by gastric intubation using an 18-gauge stainless steel animal feeding needle (Thomas Scientific, Swedesboro, N.J.). Animals were fed five times (total dose of 5 mg), at intervals of 2-3 days with the last feeding 2 days before immunization.

insulitis = assay: Suppression of insulitis in NOD mice by oral administration; type: in vivo; details: fed orally
Method: NOD mice (Taconic Labs) were fed one mg of glucagon, or one mg of porcine insulin (both commercially purchased) or equal molar amounts of insulin A-chain, B-chain and B-chain peptides described below (all insulin fragments having been synthesized) twice weekly for five weeks and sacrificed at ten weeks of age.
Control animals were fed a non-pancreatic (i.e., unrelated) peptide, GAP. Insulitis was measured as a semiquantitative insulitis score according to the method described in Zhang, Z. J., PNAS(USA), 88:10252-10256, 1991.
The insulin B-chain peptides corresponded to amino acid residues 1-12 (B1-12), 10-22 (B10-22), 11-30 (B11-30) and 23-30 (B23-30). All animals were fed 10 times over three weeks.

DTH responses to MBP = assay: Delayed type hypersensitivity (DTH) testing, Example 1; type: in vivo, Lewis rats; details: orally tolerized animals injected 5 times with 50 μl control serum; 48 hours after MBP challenge
Method: Delayed Type Hypersensitivity (DTH) Testing. DTH was tested by injecting 25 μg of MBP in PBS subcutaneously in the ear. Thickness was measured before and 48 hours after challenge, by a blinded observer, using micrometer calipers (Mitutoyo, Japan). Change in ear thickness pre- and post-challenge was recorded for each animal and the result expressed as the mean for each experimental group ±SEM.
Delayed-type hypersensitivity (DTH) responses correlate with the clinical course of EAE and serve as a measure of in vivo cellular immunity to MBP (Brod, S. A. et al. Ann. Neurol. 29:615-622, 1991; Khoury, S. J. et al. Cell. Immunol. 131:302-310, 1990). DTH responses were tested in the same groups described in FIG. 4 by injecting 25 μg of MBP in PBS subcutaneously in the ear. Thickness was measured before and 48 hours after challenge. The change in ear thickness pre- and post-challenge was recorded for each animal and the results expressed as the mean for each experimental group ± SEM.

EAE [3] = assay: EAE after MBP/CFA immunization with oral tolerization and in vivo anti-TGF-β antiserum; design: species or system Lewis rats; details: orally tolerized animals treated 5 times with 50 μl control serum; score 0-5
[4] = test system: Cells, cytokines and activation markers in rat brain; assay: Immunohistology of cells, cytokines and activation markers in sections of rat brain; type: in vivo, Lewis rats; design: key to IL-4 / TGF-β / PGE: −: absence of labelling; +/−: <10 cells/section or trace labelling; +: few small foci; 2+: multiple foci; 3+: multiple large perivascular collections and diffuse submeningeal staining; details: brain sections at day 14 (peak of disease), n = 3/group
Method: The effect of oral administration of MBP in rats induced for EAE was analyzed in terms of the cells and factors present in the brains of fed and control rats. Lewis rats were fed MBP five times then immunized with MBP/CFA and their brains were examined immunohistologically at day 14 (peak of disease) and compared to brains from immunized control-fed animals harvested at the same time, and to brains of naive animals. Cryostat sections of cortex and cerebellum were fixed in paraformaldehyde-lysine-periodate for determination of leukocytes and activation antigens, or in acetone for the labelling of cytokines, and stained by a peroxidase-antiperoxidase method (Hancock, W. W., et al., J. Immunol. 138:164, 1987). Results of cytokine and endothelial labelling in 20 consecutive fields were judged as (−) absence of labelling, (+/−) <10 cells/section or trace labelling, (+) few small foci, (2+) multiple foci, and (3+) multiple large perivascular collections and diffuse submeningeal staining.

EAE [5] = assay: I.V. tolerization with MBP and MBP peptides in EAE induced with whole guinea pig MBP; type: in vivo, SJL/J mice; details: days 8 and 9 post immunization, FIG. 16
Description: FIG. 16 is a bar graph showing the effect of intravenous tolerization with MBP and disease inducing and non-inducing fragments thereof on induced EAE expression in SJL/J mice.
Finally, the suppression of EAE by I.V. tolerization with MBP and MBP peptides prior to disease expression (on days 8 and 9 post immunization) was examined.

[6] = test system: DTH responses to MBP or OVA; assay: Delayed type hypersensitivity (DTH) testing, Example 2; type: in vivo, Lewis rats; details: fed antigen, then immunized with MBP/CFA plus OVA; FIG. 7
Method: Delayed Type Hypersensitivity (DTH) Testing. DTH was tested by injecting 50 μg of MBP or OVA in PBS, subcutaneously into the ear. MBP was injected in the left ear and OVA in the right ear in the same animal. Thickness, in units of 0.01 inch, was measured in a blinded fashion, before and 48 hours after challenge, using micrometer calipers (Mitutoyo, Utsunomia, Japan). Change in ear thickness before and after challenge was recorded for each animal, and results were expressed as the mean for each experimental group ± SEM; each group consisted of five animals.

B1: MBP: Guinea pig myelin basic protein purified from brain tissue (protein, UniProt P25188 1-167, looked up)
Myelin basic protein: ASQKRPSQRHGSKYLATASTMDHARHGFLPRHRDTGILDSIGRFFGSDRAAPKRGSGKDSHHAARTTHYGSLPQKSQRSQDENPVVHFFKNIVTPRTPPPSQGKGRGLSLSRFSWGAEGQKPGFGYGGRADYKSKGFKGAHDAQGTLSKIFKLGGRDSRSGSPMARR
- down-regulation of EAE induced by guinea pig MBP 71-90 (EAE [1]): equally effective in down-regulating EAE
- disease severity (EAE [2]): 1.1±0.1
- suppression of insulitis (in words) (insulitis): No suppression was observed
- Insulitis Score (insulitis; amount (mg) per Table 5, sacrificed at ten weeks of age): 2.14
- DTH response (change in ear thickness) (DTH responses to MBP): 0.5±0.3
- maximal disease severity (EAE [3]): 1.0±0.2
- IL-2R(p55), PCNA [4]: +/− (<10 cells/section or trace labelling)
- IL-4 [4]: −
- PGE [4]: −
- TGF-β [4]: 2+
- suppression of EAE induced with whole guinea pig MBP (EAE [5]): effective in suppressing EAE
- DTH responses to MBP [6]: Suppressed DTH responses to MBP
